{
  "source": "paper PMC6070752",
  "key": {"[1]": {"molecular_target": "T1, His6-MgrA (Staphylococcus aureus NCTC8325) (UniProt Q2G0B1)", "T1 sequence": "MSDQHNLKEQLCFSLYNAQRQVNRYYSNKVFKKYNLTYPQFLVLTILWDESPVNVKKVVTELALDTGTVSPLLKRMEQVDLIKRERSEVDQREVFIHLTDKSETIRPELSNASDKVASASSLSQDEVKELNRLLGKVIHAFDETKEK", "test": "EMSA", "details": "EMSA: 50 mM Tris-HCl pH 8.0, 200 mM NaCl, 25°C, 1 h, DNase I footprinting: 20 mM Tris-HCl pH 8.0, 100 mM NaCl, 5 mM MgCl2, 1 mM CaCl2, 2 mM DTT"}, "[2]": {"molecular_target": "T1, His6-MgrA (Staphylococcus aureus NCTC8325)", "test": "competition", "details": "EMSA: 50 mM Tris-HCl pH 8.0, 200 mM NaCl, 25°C, 1 h, DNase I footprinting: 20 mM Tris-HCl pH 8.0, 100 mM NaCl, 5 mM MgCl2, 1 mM CaCl2, 2 mM DTT"}},
  "data": [
    {"sequence": "ACTTAAATACGAATTCAGGCAACTTAATTGTGTTAAATACAGTTTTGAATGCCTAACTGTATTTCTTTTCTCTTTAAAATACAGTTAAGTACATTATAAGATGTTGTGCGGATAAACAAACTAATTGCATCAAATTTATTTTAAAATAACAACAACAAAACGTTAAGCGAATAACATTTCGGTGATTTAAAAGCTACGCACGTTTTTGTTATCTTCAAATTTAAATTTTAAGGAGTGTTTTCAATGGAAGGTT (double strand) [psmβ promoter fragment (Ppsmβ-biotin), 243 bp]", "values": [
      {"measurement": "binding", "setting": "[1]", "result": "binds"}
    ]},
    {"sequence": "ACTTAAATACGAATTCAGGCAACTTAATTGTGTTAAATACAGTTTTGAATGCCTAACTGTATTTCTTTTCTCTTTAAAATACAGTTAAGTACATTATAAGATGTTGTGCGGATAAACAAACTAATTGCATCAAATTTATTTTAAAATAACAACAACAAAACGTTAAGCGAATAACATTTCGGTGATTTAAAAGCTACGCACGTTTTTGTTATCTTCAAATTTAAATTTTAAGGAGTGTTTTCAATGGAAGGTT (double strand) [unlabeled psmβ promoter fragment (Ppsmβ), 243 bp]", "values": [
      {"measurement": "binding", "setting": "[2]", "result": "binds"}
    ]}
  ]
}
